{"source": "patent US9206239B2", "about": "“Treatment of cancers with immunostimulatory HIV Tat derivative polypeptides” (PIN Pharma, Inc., priority 2009, dated 2015)", "molecules": {"B1": {"name": "Nani-P2: HIV Tat derivative polypeptide, SEQ ID NO: 3; derivatized Tat amino terminus from an African Green Monkey variant SIV (protein)", "chain": "MDPKGEEDQDVSHQDLIKQYRKPRTACNNCYCKKCCFHCYACFLRKGLGITYHAFRTRRKKIASADRIPVPQQSISIRGRDSQTTQESQKKVEEQAKANLRISRKNLGDETRGPVGAGN", "modifications": "Nani-P2 modified HIV Tat sequence", "notes": "derivatized Tat amino terminus from an African Green Monkey variant SIV"}}, "key": {"SM1 breast cancer cells": {"system": "SM1 breast cancer cells", "experiment": "SM1 breast carcinoma model", "assay_type": "in vivo, mice", "experimental": "4T1 cells, a 6-thioguanine-resistant cell line derived from a BALB/c spontaneous mammary carcinoma was obtained from ATCC; TS/A, a murine adenocarcinoma cell line was provided by Dr. Sandra Demaria (Demaria S. et al. Clin Cancer Res. 11:728-34, 2005); and SM1, the BALB/C-derived mammary carcinoma was kindly was provided by Dr. James Allison, University of California, Berkeley. All tumor cell lines were cultured in DMEM, supplemented with 2 mM L-glutamine, 10 mM HEPES, 150 units/ml penicillin/streptomycin, 10% heat-inactivated FCS (Invitrogen), 50 μM 2-mercaptoethanol (Sigma), and 50 mg/L gentamicin (Lanza).\nBALB/c were injected (SC) with 1×10^4 4T1, 1×10^5 TS/A or 2×10^5 SM1 cells, respectively, in the left mammary pad on day 0. Immunotherapy was performed by directly injecting a Tat derivative into the right flank at 0, 7, 12, and 17 days after establishment of tumors. The control group received PBS injection. […] Tumor burden (tumor volume) was measured and recorded three times weekly. Animals were sacrificed when tumors reached a volume of 15 mm in diameter and the tumors harvested and weighed."}, "[1]": {"system": "IFN-γ production by spleen cells", "experiment": "ELISA analysis of IFN-γ production by immune spleen cells of 4T1 tumor-bearing mice", "assay_type": "in vivo, BALB/c mice", "experimental": "FIG. 7 depicts INF-γ production from spleen cells of mice bearing 4T1 breast tumors. BALB/c mice were injected SC with 1×10^4 4T1 cells. Control animals received weekly injections of PBS, while the Nani-P2 treatment comprised once weekly SC injections (40 ng) initiated at day 0 and continued for 4 weeks. On day 33, when control mice were at endstage, the mice were sacrificed, the spleens harvested and frozen as single cell suspensions until time of assay. Spleen cells (2×10^5) and 1×10^4 mitomycin C-treated (50 μg/ml for 30 min) 4T1 stimulator cells (S) were plated into 96-well plates. After 72 hr of stimulation, the supernatants were collected and IFN-γ concentration was determined using a commercial IFN-γ ELISA kit. […] 1: no restimulation; 2: IL-4 (50 ng/ml)/GM-CSF ([…]); 3: stimulator cells/IL-4/GM-CSF; 4: stimulator cells only.\nSplenocyte secretion of IFN-γ was assessed by an OPTEIA® ELISA kit (BD Biosciences). Briefly, spleen cells (1×10^5/well) from 4T1 tumor-bearing mice were cultured with or without 5×10^3/well mitomycin C (50 μg/ml)-treated 4T1 cells (used to provide tumor antigens) in DMEM in at a 20:1 E:T (effector:tumor) ratio with […] (50 ng/mL) and GM-CSF (100 ng/ml) in 96-well plates. Supernatants were collected after 72 hr and kept frozen at −80° C. until analysis without loss of activity. IFN-γ was measured in cell-free supernatants of duplicate wells by ELISA according to the manufacturer's instructions. Tumor-specific IFN-γ production was calculated by subtracting the background values measured in supernatants of spleen cells cultured with medium alone and optical density (OD) values were converted to pg/ml amounts of IFN-γ using a recombinant IFN-γ standard curve. Stimulation index (SI) was calculated as the ratio of IFN-γ in stimulated versus control cultures.\nTo determine whether cytotoxic T-lymphocytes play a role in tumor rejection induced by Nani-P2 therapy, an IFN-γ ELISA assay (FIG. 7) was performed to compare spleen cells of 4T1 tumor-bearing mice treated either without (Control) or with Nani-P2 (FIG. 7). […]"}, "4T1 cells": {"system": "4T1 cells", "experiment": "Repeated dosing of Nani-P2 alternating with cyclophosphamide in 4T1 tumor-bearing mice", "assay_type": "in vivo, BALB/c mice", "experimental": "Four groups of 10 BALB/c mice were implanted with 1×10^4 4T1 cells SC into the mammary fat pad. Treatment was initiated when tumor diameters reached 4-5 mm, on day 10. Control mice were injected IV with PBS at 3 days intervals, while alternating treatment mice received 3 doses of drug every 3 days in rotating 10 day cycles. Tumor burden (tumor size mm^3) was calculated using a standard formula. CY: (cyclophosphamide alone) mice were injected IP weekly with 80 mg/kg per mouse beginning on day 10. Cy/Nani-P2: (cyclophosphamide first followed by Nani-P2) mice were first injected IP with cyclophosphamide (80 mg/kg) at 3 days intervals for three doses starting at day 10 and then injected IV with Nani-P2 (40 ng) at 3 days intervals for three doses in rotation. The cycle of 3 doses of CY followed by 3 doses of Nani-P2 was repeated until day 50. Nani-P2/CY: (Nani-P2 first followed by cyclophosphamide): mice were first injected IV with Nani-P2 (40 ng) at 3 day intervals for 3 doses starting on day 10 and then injected i.p. with cyclophosphamide at 3 day intervals in rotation. The cycle of 3 doses of Nani-P2 followed by 3 doses of CY was repeated until day 50."}, "[2]": {"conditions": "day 50, Nani-P2 alternating with cyclophosphamide"}}, "data": [{"molecule": "B1", "values": [{"measurement": "difference in primary tumor growth between control and treated animals", "setting": "SM1 breast cancer cells; 40 ng SC days 0, 7, 14, 21, p<0.01", "result": "highly statistically significant"}, {"measurement": "animals remaining in remission", "setting": "SM1 breast cancer cells; 28 days following implant, one week after termination of the regimen", "result": 40, "unit": "%"}, {"measurement": "animals in which tumor growth was suppressed", "setting": "SM1 breast cancer cells; for 16 days, 40 ng SC days 0, 7, 14, 21", "result": 100, "unit": "%"}, {"measurement": "baseline levels of INF-γ secreted by splenocytes vs PBS-treated control mice", "setting": "[1]; 40 ng SC weekly for 4 weeks, no restimulation", "result": 8, "unit": "fold"}, {"measurement": "INF-γ production in cultures of spleen cells vs control", "setting": "[1]; all conditions of assay", "result": "significantly (p<0.01**) higher"}, {"measurement": "stimulation index vs control", "setting": "[1]; tumor stimulators + IL4 + GM-CSF added at initiation of culture", "result": 53}, {"measurement": "survival benefit vs weekly cyclophosphamide", "setting": "4T1 cells; Nani-P2 bolus treatment alternating with cyclophosphamide, p=0.0001", "result": "highly statistically significant"}, {"measurement": "mice in partial remission", "setting": "4T1 cells; [2]", "result": "9/10"}, {"measurement": "mice in total remission", "setting": "4T1 cells; [2]", "result": "3/10"}]}]}
